Laboratory results published in the supplement of paper PMC7877785.
± gives the uncertainty stated by the source.

Test: self-splicing fitness, log relative to wild type (ln ratio); higher = more splicing; Tetrahymena group I intron in knt gene, E. coli kanamycin selection, DiMSum; sequences stand for … in CUCUCU…GGAGGGAAAAGUUAUCAGGCAUGCACCUGGUAGCUAGUCUUUAAACCAAUAGAUUGCAUCGGUUUAAAAGGCAAGACCGUCAAAUUGCGGGAAAGGGGUCAACAGCCGUUCAGUACCAAGUCUCAGGGGAAACUUUGAGAUGGCCUUGCAAAGGGUAUGGUAAUAAGCUGACGGACAUGGUCCUAACCACGCAGCCAAGUCCUAAGUCAACAGAUCUUCUGUUGAUAUGGAUGCAGUUCACAGACUAAAUGUCGGUCGGGGAAGAUGUAUUCUUCUCAUAAGAUAUAGUCGGACCUCUCCUUAAUGGGAGCUAGCGGAUGAAGUGAUGCAACACUGGAGCCGCUGGGAACUAAUUUGUAUGCGAAAGUAUAUUGAUUAGUUUUGGAGUACUCGUGGUCG
Method in brief: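 A randomised library covering all eight P1ex-region intron nucleotides was built with the intron in the knt kanamycin-resistance gene on pET-22b(+) and held in E. coli BL21(DE3). Cells were grown overnight at 37°C or 30°C on LB agar, with or without 25 μg/mL kanamycin, plus 100 μg/mL carbenicillin, 50 μM IPTG and 0.2% rhamnose, and pooled colonies were amplicon-sequenced on an Illumina HiSeq 2500. DiMSum fitness is the error-weighted combination of wild-type-normalised replicate fold changes, kanamycin versus none.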

Sequence	self-splicing fitness (ln) (30 °C)	self-splicing fitness (ln) (37 °C)
GCUAAGCAAUAUUACGGCAG	-3.28 ± 0.34	-2.85 ± 0.34
CUGCAGCAAUAUUACGUGGC	-3.72 ± 0.21	-3.03 ± 0.24
CCACAGCAAUAUUACGCGAC	-2.75 ± 0.17	-2.76 ± 0.26
UACCAGCAAUAUUACGCACA	-0.477 ± 0.088	0.0379 ± 0.092
GGAAAGCAAUAUUACGAGUU	-1.86 ± 0.1	-1.08 ± 0.12
AGUGAGCAAUAUUACGAUCG	-0.663 ± 0.23	-0.975 ± 0.24
CCUUAGCAAUAUUACGAAAU	-3.26 ± 0.29	-2.12 ± 0.31
UUGUAGCAAUAUUACGGUAU	-0.659 ± 0.35	
CCUAAGCAAUAUUACGAGCG	-0.823 ± 0.097	-0.11 ± 0.11
UAUUAGCAAUAUUACGAAUA	-0.842 ± 0.38	-0.292 ± 0.38
UACCAGCAAUAUUACGCGGG	-3.61 ± 0.21	-1.31 ± 0.17
CCAUAGCAAUAUUACGAUUU	-3.31 ± 0.2	-2.37 ± 0.23
GUAAAGCAAUAUUACGUGUG	-1.34 ± 0.063	-1 ± 0.088
GGACAGCAAUAUUACGUUAA	-0.204 ± 0.07	0.00356 ± 0.08
GUUUAGCAAUAUUACGUUUU	-2.72 ± 0.14	-1.65 ± 0.18
CGGCAGCAAUAUUACGUCUU	-1.09 ± 0.066	0.328 ± 0.086
GCAGAGCAAUAUUACGACGG	-2.22 ± 0.2	-1.21 ± 0.18
CGUAAGCAAUAUUACGGGUU	-3.63 ± 0.17	-2.98 ± 0.29
AUAUAGCAAUAUUACGUCCG		-1.64 ± 0.43
UUCCAGCAAUAUUACGACGC	-3.25 ± 0.24	-3.03 ± 0.17
UUAUAGCAAUAUUACGUUAA	-2.07 ± 0.29	-1.61 ± 0.22
UUGAAGCAAUAUUACGCCCU	-0.0294 ± 0.13	0.698 ± 0.16
CCAGAGCAAUAUUACGUGCG	-1.59 ± 0.077	-0.888 ± 0.097
CUAAAGCAAUAUUACGCUAC	-3.59 ± 0.37	-2.59 ± 0.26
AAACAGCAAUAUUACGCGGU	-3.32 ± 0.23	-2.18 ± 0.17

Sequence	self-splicing fitness (ln) (30 °C)	self-splicing fitness (ln) (37 °C)
UUCAAGCAAUAUUACGAUAU	-2.7 ± 0.18	-1.42 ± 0.18
ACCAAGCAAUAUUACGUCCA	-2.01 ± 0.096	-1.3 ± 0.1
CGUUAGCAAUAUUACGCAGG	-1.3 ± 0.1	-1.26 ± 0.16
CUCCAGCAAUAUUACGGAGA	-3.61 ± 0.27	-2.21 ± 0.21
GCUCAGCAAUAUUACGGCCG	-3.86 ± 0.27	-2.15 ± 0.27
GAUAAGCAAUAUUACGCGGG	-2.89 ± 0.11	-2.34 ± 0.12
UCAUAGCAAUAUUACGGCGU	-3.73 ± 0.14	-3.17 ± 0.19
UCCGAGCAAUAUUACGGACA	-2.33 ± 0.18	-0.762 ± 0.13
UCGGAGCAAUAUUACGUCAG		-1.11 ± 0.34
UUGAAGCAAUAUUACGGCUC	-3.8 ± 0.25	-1.42 ± 0.19
UUGCAGCAAUAUUACGCUCU	-1.01 ± 0.12	-0.306 ± 0.13
CGCGAGCAAUAUUACGUAGC	-3.66 ± 0.3	-2.5 ± 0.32
CAACAGCAAUAUUACGCACG	-0.598 ± 0.067	0.246 ± 0.094
UAUGAGCAAUAUUACGUCAA		-2.59 ± 0.38
GCAAAGCAAUAUUACGGAUC	-1.26 ± 0.073	-0.379 ± 0.085
UUGCAGCAAUAUUACGCUAU	-2.99 ± 0.25	-1.16 ± 0.17
CAUCAGCAAUAUUACGAUAA	-1.46 ± 0.092	-0.079 ± 0.088
UCUGAGCAAUAUUACGCCAG		-0.871 ± 0.46
CCCGAGCAAUAUUACGAACG		-1.84 ± 0.44
UUGAAGCAAUAUUACGACGC	-0.722 ± 0.11	0.156 ± 0.14
GAGAAGCAAUAUUACGCUUG	-2.34 ± 0.1	-0.658 ± 0.13
CGAUAGCAAUAUUACGCCUU	-2.23 ± 0.17	-2.24 ± 0.17
ACCAAGCAAUAUUACGCGAC	-3.19 ± 0.16	-1.59 ± 0.16
CUUCAGCAAUAUUACGAGAU	-3.35 ± 0.23	-2.43 ± 0.26
